This is an account of results in patent US20210363269A1 (ALX ONCOLOGY, published 2021).

Changes are numbered by the printed parent chain.

The target in experiment [1] is T1, human SIRPγ isoform 1 (human, UniProt Q9P1W8 29-147).
T1 construct: also called Gamma; Human SIRPg
As to the kind of experiment: SPR. In a few lines:
(§1)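 Purified antibodies were either amine-coupled to a GLC chip or captured via biotinylated Protein A on an NLC chip of a ProteOn XPR36 biosensor. Runs were at 25° C in PBS pH 7.4 with 0.01% Tween-20. SIRP analytes were injected in one-shot kinetic mode at nominal concentrations set by A280 absorbance. Double-referenced data were fitted globally to a simple Langmuir model, giving apparent rate constants, with KD taken as kd/ka.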

Experiment [2] deals with T2, human SIRP-α v2 (human).
T2 construct: also called Human v2; Human V2
As to the kind of experiment: SPR. In a few lines: as §1

Experiment [3] has as its target T3, BALBc mouse SIRP-α (mouse (BALB/c strain)).
T3 chain: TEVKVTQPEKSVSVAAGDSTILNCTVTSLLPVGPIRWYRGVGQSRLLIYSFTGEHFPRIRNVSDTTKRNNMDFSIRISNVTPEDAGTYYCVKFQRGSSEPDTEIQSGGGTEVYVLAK
The experiment in a line: SPR. A digest of the protocol: as §1

Experiment [4] addresses T4, human SIRP-α v1 (human, UniProt P78324 31-149).
T4 construct: also called Human v1; Human V1
As to the kind of experiment: SPR. A digest of the protocol:
as §1

Experiment [5] deals with T5, cynomolgus SIRP-α (cynomolgus monkey, UniProt Q5TFQ8 30-148 (human entry), limits assumed).
T5 construct: also called cyno1
T5 chain: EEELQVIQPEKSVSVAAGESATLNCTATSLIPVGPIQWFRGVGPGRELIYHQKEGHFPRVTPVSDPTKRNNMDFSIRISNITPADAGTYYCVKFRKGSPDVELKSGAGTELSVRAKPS
As to the kind of experiment: SPR. A digest of the protocol: as §1

Experiment [6] has as its target T2, human SIRP-α v2. The experiment in a line: SPR. In a few lines:
as §1
The source holds these as a separate data set.

In experiment [7] the target is T4, human SIRP-α v1. As to the kind of experiment: SPR. A digest of the protocol:
as §1
The source holds these as a separate data set.

Experiment [8] deals with T1, human SIRPγ isoform 1. The experiment in a line: SPR Koff +/-. In a few lines:
as §1

For experiment [9], the target named is T6, mouse 129 SIRP-α (mouse (129 strain), UniProt P97797 32-150).
T6 construct: also called m129
T6 chain: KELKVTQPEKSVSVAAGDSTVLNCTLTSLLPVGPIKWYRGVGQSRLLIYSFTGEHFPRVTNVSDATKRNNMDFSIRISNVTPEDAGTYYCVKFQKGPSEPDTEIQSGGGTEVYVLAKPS
As to the kind of experiment: SPR Koff +/-. In a few lines:
as §1

Experiment [10] has as its target T7, human SIRPβ isoform 1 (human, UniProt O00241 30-148).
T7 construct: also called Beta; Human SIRPb
The experiment in a line: SPR Koff +/-. In a few lines: as §1

Experiment [11] has as its target T5, cynomolgus SIRP-α. The experiment in a line: SPR Koff +/-. A digest of the protocol: as §1

T7 sequence (O00241 30-148 limits assumed): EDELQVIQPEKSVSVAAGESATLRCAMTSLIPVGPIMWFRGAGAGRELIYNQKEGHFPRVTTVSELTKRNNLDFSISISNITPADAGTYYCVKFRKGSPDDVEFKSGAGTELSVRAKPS
T1 sequence (Q9P1W8 29-147 limits assumed): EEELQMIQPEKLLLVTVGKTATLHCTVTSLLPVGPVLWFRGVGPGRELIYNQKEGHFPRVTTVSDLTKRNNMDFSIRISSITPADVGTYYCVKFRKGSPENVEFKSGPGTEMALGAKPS
T4 sequence (P78324 31-149 limits assumed): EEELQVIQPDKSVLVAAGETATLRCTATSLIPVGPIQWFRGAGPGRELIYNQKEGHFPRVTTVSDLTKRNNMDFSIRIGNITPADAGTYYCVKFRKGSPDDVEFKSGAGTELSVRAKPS
T2 sequence (chain, as listed by the source limits assumed): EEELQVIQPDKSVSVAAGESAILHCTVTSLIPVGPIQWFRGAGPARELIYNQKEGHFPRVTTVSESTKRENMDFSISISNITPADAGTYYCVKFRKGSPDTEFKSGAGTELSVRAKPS

B1: antibody 25 (antibody, V domains shown)
VH: DVQLVESGGGVVRPGESLRLSCEASGFTFSSNAMSWVRQAPGKGLEWVAGISSGSDTYYGDSVKGRLTISRDNSKNILYLQMNSLTAEDTAVYYCARETWNHLFDYWGLGTLVTVSS
VL: ALTQPASVSANPGETVEITCSGGSYSSYYYAWYQQKSPGSAPVTLIYSDDKRPSNIPSRFSGSASGSTATLTITGVRAEDEAVYFCGGYDQSSYTNPFGAGTTLTVL
notes: also called AB25; S25
Turning to B1, the koff is 0.000203 s⁻¹ in experiment [1]; 0.000353 s⁻¹ in experiment [2]; 0.00178 s⁻¹ in [3]; 0.000165 s⁻¹ in [4]; 0.000394 s⁻¹ in experiment [5]. Besides, the Kd in [6] and in [7] was less than 0.001 nM in each case.

B2: antibody 115 (antibody, V domains shown)
VH: DVQLVESGGGVVRPGESLRLSCAASGFSFSSYAMNWVRQAPGEGLEWVSRINSGGGGTDYAESVKGRFTISRDNSENTLYLQMNSLRAEDTAVYYCAKQYDWNSFFDYWGLGALVTVSS
VL: ETVLTQSPATLSVSPGERATLSCRASQTVGSKLAWHQQKPGQAPRLLIYDATNRATGISDRFSGSGSGTDFTLTISSLQTEDSAVYYCQQYYYWPPYRFGGGTKVEIK
notes: also called S115
For the molecule B2, the Kd in experiment [6] came out at 0.015 nM; in experiment [7], 0.0177 nM. The binding result in experiment [8] was “binds”; in [9], “no binding”; in experiment [10], “binds”; in [11], “binds”.

B3: antibody 117 (antibody, V domains shown)
VH: VQLVESGGGVVRPGESLRLSCAASGFSFSSYAMNWVRQAPGEGLEWVSRINSGGGGTDYAESVKGRFTISRDNSENTLYLQMNSLRAEDTAVYYCAKQYDWNGFFDYWGLGALVTVSS
VL: B2 VL with S59P
notes: also called S117
In [7], B3 came in with a Kd of 0.0312 nM. The binding result in [8] is given as “binds”; in experiment [9] it was “no binding”; in experiment [10], “binds”; in [11], “binds”.

B4: antibody 116 (antibody, V domains shown)
VH: B3 VH with G103S
VL: B2 VL with G66R
notes: also called S116
In the case of B4, the Kd stood at 0.299 nM in experiment [6] and 0.11 nM in experiment [7]. Also, the binding result in experiment [8] was “binds”; in experiment [9], “no binding”; in experiment [10], “binds”; in experiment [11], “binds”.

B5: antibody 118 (antibody, V domains shown)
VH: B3 VH
VL: B2 VL with T52S, N53R, S59P
notes: also called S118
In [7], B5 displayed a Kd of 0.0403 nM. The binding result is listed as “binds” in [8], “no binding” in [9], “binds” in experiment [10] and “binds” in [11].

B6: antibody 209 (antibody, V domains shown)
VH: DVQLVESGGAVVRPGESLRLSCKASGFTFTNFAMSWVRQAPGEGLEWVSGISGSDDTTYYADSVKGRFTISRDNSESTLYLQMNSLRAEDTAVYYCVKDSTVSWNTFFDYWGLGTLVTVSS
VL: ALTQPASVSANLGGTVKITCSGGYGSDDGSSSYYGWYQQKSPGSAPVILIYWDDKRPSDIPSRFSGSTSGSTTTLTITGVQAEDEAVYFCGTYDTSSGAIFGAGTTLTVL
notes: also called S209
On to B6, for which the values for the Kd in experiment [6] and in [7] were 5.01 nM and 0.171 nM, respectively. Besides, the binding result in experiment [8] and in experiment [11] was “no binding” each time.

B7: antibody 137 (antibody, V domains shown)
VH: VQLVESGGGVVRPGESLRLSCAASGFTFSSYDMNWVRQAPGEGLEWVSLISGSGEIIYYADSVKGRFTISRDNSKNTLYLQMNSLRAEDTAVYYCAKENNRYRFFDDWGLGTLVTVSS
VL: ETVLTQSPGTLTLSPGERATLTCRASQSVYTYLAWYQEKPGQAPRLLIYGASSRATGIPDRFSGSGSGTVFTLTISSLQSEDFAVYYCQQYYDRPPLTFGGGTKVEIK
notes: also called S137
For the molecule B7, the Kd turned out to be 3.14 nM in experiment [6] and 0.774 nM in experiment [7]. Besides, the binding result in experiment [9], in [10] and in [11] was “binds” throughout.

B8: antibody 173 (antibody, V domains shown)
VH: DVQLVESGGGVVRPGESLRLSCAASGFAFSDHDMSWVRQGPGEGLEWVAGISLRGGVTWYADSVKGRFTISRDNSKNTLYLRLFSLRTEDTAIYYCARESWNTFFDYWGLGTLVTVSS
VL: EIVLTQSPGTLSLSPGETATLSCRASQNVRSNLAWYQQKPGQAPRLLIYDASSRATGIPDRFSGSGSGTDFTLTISSLQSEDFAVYYCQQYGNGPPLTFGGGTKVEIK
notes: also called S173
As for B8, the Kd in experiment [6] was determined as 9.28 nM; in experiment [7], 0.937 nM. Moreover, the binding result in [8], in experiment [9], in [10] and in experiment [11] was “no binding” throughout.

B9: antibody 174 (antibody, V domains shown)
VH: B8 VH with A28T
VL: B8 VL
notes: also called S174
For B9, the binding result in experiment [8], in experiment [9], in [10] and in experiment [11] was “no binding” each time.

B10: antibody 122 (antibody, V domains shown)
VH: VQLVESGGGVVRPGESLRLSCAASGFRFSNFAMTWVRQAPGEGLEWVSTIGSGDTYYADSVKGRFTISRDNSKNTLYLQMNSLRAEDTAVYYCAKDSTVSWSGDFFDYWGLGTLVTVSS
VL: EIVLTQSPATLSVSPGERATFSCRASQNVKNDLAWYQQRPGQAPRLLIYAARIRETGIPERFSGSGSGTEFTLTITSLQSEDFAVYYCQQYYDWPPFTFGGGTKVEIK
notes: also called S122
In the case of B10, the figures for the Kd in [6] and in experiment [7] were 0.0778 nM and 0.214 nM, respectively. Also, the binding result is “binds” in experiment [8], “no binding” in experiment [9], “binds” in experiment [10] and “binds” in experiment [11].

B11: antibody 45 (antibody, V domains shown)
VH: AVTLDESGGGLQTPGGALSLVCKASGFTFSSYAMGWVRQAPGKGLEWVAGIDDDGSTANYGPAVKGRATISRDNGQSTVRLQLNNPRAEDSGTYFCAKASVTGWSAHISGRLDTWGHGTEVIVSS
VL: ALTQPASVSANPGETVKITCSGGGIYYYGWYQQKSPGSAPVTLIYENDKRPSDIPSRFSGSTSGSTNTFTITGVQAEDEAVYYCGGYDSNTTSGIFGAGTTLTVL
notes: also called S45; AB45
Take B11: in [11], the binding result is listed as “no binding”.

B12: antibody 149 (antibody, V domains shown)
VH: DVQLVESGGGVVRPGESLRLSCAASGFTFSNFAMNWVRQAPGEGLEWVSLISVTATTYYADSVKGRFTISRDNSKNTLYLQMNSLRAEDTAVYYCAKVTWNNLFDYWGLGTLVTVSS
VL: EIVLTQSPGTLSLSPGERATLSCRASQPIDSYLAWYQQKPGQAPRLLIYNTVTRATGIPDRFSGSGSGTDFTLTINRLEPEDFAVYYCQHQYDWPPYIFGGGTKVEIK
notes: also called S149
On to B12, for which the figures for the Kd in experiment [6] and in experiment [7] were 0.238 nM and 0.873 nM, respectively. Further, the binding result in experiment [8] and in [9] was “no binding” in each case.

B13: antibody 161 (antibody, V domains shown)
VH: B12 VH with N35T, E43K, L45P, I51V, N76S, V98I
VL: EIVLTQSPGTLSLSPGERATLSCRASQTVGSKLAWYQQKPGQAPRLLIYDSSSRASGIPDRFSGSGSGTDFTLTISSLQSEDSAVYYCQQHNDWPPYTFGGGTKVEIK
notes: also called S161
As for B13, the Kd in experiment [6] was found to be 0.127 nM; in experiment [7], 1.03 nM. Also, the binding result in [8] and in [9] was “no binding” each time.
